Measured values as given in PMC5641120, “Small-molecule inhibitors of PD-1/PD-L1 immune checkpoint alleviate the PD-L1-induced exhaustion of T-cells” (Oncotarget, 2017).

Test system: PD-1/sPD-L1
Experiment: PD-1/sPD-L1 effector assay (anti-CD3 activated ECs, luciferase)
Type: cell-based, human
Settings: anti-CD3 with sPD-L1 (wt or mutein), 24 h, luciferase reporter
Procedure: To evaluate the potential of BMS compounds in abrogating the inhibitory effect of sPD-L1 on the activation of T cells, sPD-L1 was pre-incubated with tested compounds and presented to ECs together with the anti-CD3-activating antibody.
For the evaluation of the BMS impact on T cell inhibition by soluble PD-L1, the ECs were stimulated with the anti-CD3 antibody in the presence of the recombinant human sPD-L1. For this, the 96-well white flat bottom plates were coated overnight at 4°C with 5 μg/ml of the anti-CD3 antibody or the isotype control solution in PBS. […] Then, 15 μl of the solution was added to each well of the antibody-coated plate. ECs were centrifuged and diluted to 50 000 per ml, and 60 μl of the cell solution was added to each well. The final concentration of sPD-L1 was 10 μg/ml (0.6 μM). The final concentrations of the BMS compounds were: 0.12, 0.3, 1.2 and 3 μM, giving the following BMS:sPD-L1 molar ratios: 1:5, 1:2, 2:1 and 5:1. The cells were cultured for 24 h and the luciferase activity assay was performed using the Bio-Glo Luciferase Assay System (Promega) according to the manufacturer's instructions.

B1: sPD-L1: recombinant human soluble PD-L1 (residues 18–134, C-terminal His-tag) (protein)
chain: AFTVTVPKDLYVVEYGSNMTIECKFPVEKQLDLAALIVYWEMEDKNIIQFVHGEEDLKVQHSSYRQRARLLKDQLSLGNAALQITDVKLQDAGVYRCMISYGGADYKRITVKVNAPY
modifications: NTA-Atto 647 N fluorescent dye on the His-tag (flow cytometry only); uniform 15N labelling (NMR titration with compounds only); left off: His-tag, C-terminal, kept
B1 was tested. Which “effect of soluble PD-L1 protein on anti-CD3 mediated activation of ECs” value did it give?
The value was “decreased reporter expression to about half”.
